Experimental data as given in US20250263504A1 (Takeda / Millennium, published 2025).

B1: 620I-X0179-C01 (bispecific antibody, human IgG1, kappa)
heavy: not shown
light: DIQMTQSPSTLSASVGDRVTITCRASQSISSWLAWYQQKPGKAPKLLIYKASTLESGVPSRFSGSGSGTEFTLTISSLQPDDFATYYCQQYNTYWTFGQGTKVEIKRTVAAPSVFIFPPSDEQLKSGTASVVCLLNNFYPREAKVQWKVDNALQSGNSQESVTEQDSKDSTYSLSSTLTLSKADYEKHKVYACEVTHQGLSSPVTKSFNRGEC
notes: 620I-X0177-A01 with IgG C-terminal Lys changed to Gly; also called 620I-R0052-C01; 620I-X179-C01
B2: 620I-X0142-B11 (bispecific antibody, human IgG1, kappa)
heavy: not shown
light: DIQMTQSPSTLSASVGDRVTITCRASQSISSWLAWYQQKPGKAPKLLIYKASTLESGVPSRFSGSGSGTEFTLTISSLQPDDFATYYCQQYNTYWTFGQGTKVEIKRTVAAPSVFIFPPSDEQLKSGTASVVCLLNNFYPREAKVQWKVDNALQSGNSQESVTEQDSKDSTYSLSSTLTLSKADYEKHKVYACEVTHQGLSSPVTKSFNRGEC
notes: also called 620I-X142-B11
B3: 620I-X0138-B01 (bispecific antibody, human IgG1, kappa)
heavy: not shown
light: DIQMTQSPSTLSASVGDRVTITCRASQSISSWLAWYQQKPGKAPKLLIYKASTLESGVPSRFSGSGSGTEFTLTISSLQPDDFATYYCQQYNTYWTFGQGTKVEIKRTVAAPSVFIFPPSDEQLKSGTASVVCLLNNFYPREAKVQWKVDNALQSGNSQESVTEQDSKDSTYSLSSTLTLSKADYEKHKVYACEVTHQGLSSPVTKSFNRGEC
notes: also called 620I-X138-B01
B4: 620I-X0179-E05 (bispecific antibody, human IgG1, kappa)
heavy: not shown
light: DIQMTQSPSTLSASVGDRVTITCRASQSISSWLAWYQQKPGKAPKLLIYKASTLESGVPSRFSGSGSGTEFTLTISSLQPDDFATYYCQQYNTYWTFGQGTKVEIKRTVAAPSVFIFPPSDEQLKSGTASVVCLLNNFYPREAKVQWKVDNALQSGNSQESVTEQDSKDSTYSLSSTLTLSKADYEKHKVYACEVTHQGLSSPVTKSFNRGEC
notes: 620I-X0177-C01 with IgG C-terminal Lys deleted; also called 620I-R0052-E01
B5: 620I-X0139-G12 (bispecific antibody)
heavy: not shown
light: DIQMTQSPSTLSASVGDRVTITCRASQSISSWLAWYQQKPGKAPKLLIYKASTLESGVPSRFSGSGSGTEFTLTISSLQPDDFATYYCQQYNTYWTFGQGTKVEIKRTVAAPSVFIFPPSDEQLKSGTASVVCLLNNFYPREAKVQWKVDNALQSGNSQESVTEQDSKDSTYSLSSTLTLSKADYEKHKVYACEVTHQGLSSPVTKSFNRGEC
notes: also called 620I-X139-G12
B6: 620I-X0142-A04 (bispecific antibody)
heavy: not shown
light: DIQMTQSPSTLSASVGDRVTITCRASQSISSWLAWYQQKPGKAPKLLIYKASTLESGVPSRFSGSGSGTEFTLTISSLQPDDFATYYCQQYNTYWTFGQGTKVEIKRTVAAPSVFIFPPSDEQLKSGTASVVCLLNNFYPREAKVQWKVDNALQSGNSQESVTEQDSKDSTYSLSSTLTLSKADYEKHKVYACEVTHQGLSSPVTKSFNRGEC
notes: also called 620I-X142-A04
B7: 620I-X0142-E02 (bispecific antibody)
heavy: not shown
light: DIQMTQSPSTLSASVGDRVTITCRASQSISSWLAWYQQKPGKAPKLLIYKASTLESGVPSRFSGSGSGTEFTLTISSLQPDDFATYYCQQYNTYWTFGQGTKVEIKRTVAAPSVFIFPPSDEQLKSGTASVVCLLNNFYPREAKVQWKVDNALQSGNSQESVTEQDSKDSTYSLSSTLTLSKADYEKHKVYACEVTHQGLSSPVTKSFNRGEC
notes: also called 620I-X142-E02
B8: 620I-X0179-G05 (bispecific antibody, human IgG1, kappa)
heavy: not shown
light: DIQMTQSPSTLSASVGDRVTITCRASQSISSWLAWYQQKPGKAPKLLIYKASTLESGVPSRFSGSGSGTEFTLTISSLQPDDFATYYCQQYNTYWTFGQGTKVEIKRTVAAPSVFIFPPSDEQLKSGTASVVCLLNNFYPREAKVQWKVDNALQSGNSQESVTEQDSKDSTYSLSSTLTLSKADYEKHKVYACEVTHQGLSSPVTKSFNRGEC
notes: 620I-X0177-C01 with IgG C-terminal Lys changed to Gly; also called 620I-R0052-G01; 620I-X179-G05
B9: 620I-X0180-A05 (bispecific antibody, human IgG1, kappa)
heavy: not shown
light: DIQMTQSPSTLSASVGDRVTITCRASQSISSWLAWYQQKPGKAPKLLIYKASTLESGVPSRFSGSGSGTEFTLTISSLQPDDFATYYCQQYNTYWTFGQGTKVEIKRTVAAPSVFIFPPSDEQLKSGTASVVCLLNNFYPREAKVQWKVDNALQSGNSQESVTEQDSKDSTYSLSSTLTLSKADYEKHKVYACEVTHQGLSSPVTKSFNRGEC
notes: 620I-X0177-G01 with IgG C-terminal Lys deleted; also called 620I-R0052-A03; 620I-X180-A05
B10: 620I-X0179-A09 (bispecific antibody, human IgG1, kappa)
heavy: not shown
light: DIQMTQSPSTLSASVGDRVTITCRASQSISSWLAWYQQKPGKAPKLLIYKASTLESGVPSRFSGSGSGTEFTLTISSLQPDDFATYYCQQYNTYWTFGQGTKVEIKRTVAAPSVFIFPPSDEQLKSGTASVVCLLNNFYPREAKVQWKVDNALQSGNSQESVTEQDSKDSTYSLSSTLTLSKADYEKHKVYACEVTHQGLSSPVTKSFNRGEC
notes: 620I-X0177-A01 with IgG C-terminal Lys deleted; also called 620I-R0052-A01; 620I-X179-A09
B11: 620I-X0142-A02 (bispecific antibody)
heavy: not shown
light: DIQMTQSPSTLSASVGDRVTITCRASQSISSWLAWYQQKPGKAPKLLIYKASTLESGVPSRFSGSGSGTEFTLTISSLQPDDFATYYCQQYNTYWTFGQGTKVEIKRTVAAPSVFIFPPSDEQLKSGTASVVCLLNNFYPREAKVQWKVDNALQSGNSQESVTEQDSKDSTYSLSSTLTLSKADYEKHKVYACEVTHQGLSSPVTKSFNRGEC
notes: also called 620I-X142-A02
B12: 620I-X0180-G03 (bispecific antibody, human IgG1, kappa)
heavy: not shown
light: DIQMTQSPSTLSASVGDRVTITCRASQSISSWLAWYQQKPGKAPKLLIYKASTLESGVPSRFSGSGSGTEFTLTISSLQPDDFATYYCQQYNTYWTFGQGTKVEIKRTVAAPSVFIFPPSDEQLKSGTASVVCLLNNFYPREAKVQWKVDNALQSGNSQESVTEQDSKDSTYSLSSTLTLSKADYEKHKVYACEVTHQGLSSPVTKSFNRGEC
notes: 620I-X0177-E01 with IgG C-terminal Lys changed to Gly; also called 620I-R0052-G03; 620I-X180-G03
B13: 620I-X0139-E05 (bispecific antibody)
heavy: not shown
light: DIQMTQSPSTLSASVGDRVTITCRASQSISSWLAWYQQKPGKAPKLLIYKASTLESGVPSRFSGSGSGTEFTLTISSLQPDDFATYYCQQYNTYWTFGQGTKVEIKRTVAAPSVFIFPPSDEQLKSGTASVVCLLNNFYPREAKVQWKVDNALQSGNSQESVTEQDSKDSTYSLSSTLTLSKADYEKHKVYACEVTHQGLSSPVTKSFNRGEC
notes: also called 620I-X139-E05
B14: 620I-X0142-A05 (bispecific antibody)
heavy: not shown
light: DIQMTQSPSTLSASVGDRVTITCRASQSISSWLAWYQQKPGKAPKLLIYKASTLESGVPSRFSGSGSGTEFTLTISSLQPDDFATYYCQQYNTYWTFGQGTKVEIKRTVAAPSVFIFPPSDEQLKSGTASVVCLLNNFYPREAKVQWKVDNALQSGNSQESVTEQDSKDSTYSLSSTLTLSKADYEKHKVYACEVTHQGLSSPVTKSFNRGEC
notes: also called 620I-X142-A05
B15: 620I-X0180-E07 (bispecific antibody, human IgG1, kappa)
heavy: not shown
light: DIQMTQSPSTLSASVGDRVTITCRASQSISSWLAWYQQKPGKAPKLLIYKASTLESGVPSRFSGSGSGTEFTLTISSLQPDDFATYYCQQYNTYWTFGQGTKVEIKRTVAAPSVFIFPPSDEQLKSGTASVVCLLNNFYPREAKVQWKVDNALQSGNSQESVTEQDSKDSTYSLSSTLTLSKADYEKHKVYACEVTHQGLSSPVTKSFNRGEC
notes: 620I-X0177-E01 with IgG C-terminal Lys deleted; also called 620I-R0052-E03; 620I-X180-E07
B16: 620I-X0142-D04 (bispecific antibody)
heavy: not shown
light: DIQMTQSPSTLSASVGDRVTITCRASQSISSWLAWYQQKPGKAPKLLIYKASTLESGVPSRFSGSGSGTEFTLTISSLQPDDFATYYCQQYNTYWTFGQGTKVEIKRTVAAPSVFIFPPSDEQLKSGTASVVCLLNNFYPREAKVQWKVDNALQSGNSQESVTEQDSKDSTYSLSSTLTLSKADYEKHKVYACEVTHQGLSSPVTKSFNRGEC
notes: also called 620I-X142-D04
B17: 620I-X0180-C11 (bispecific antibody, human IgG1, kappa)
heavy: not shown
light: DIQMTQSPSTLSASVGDRVTITCRASQSISSWLAWYQQKPGKAPKLLIYKASTLESGVPSRFSGSGSGTEFTLTISSLQPDDFATYYCQQYNTYWTFGQGTKVEIKRTVAAPSVFIFPPSDEQLKSGTASVVCLLNNFYPREAKVQWKVDNALQSGNSQESVTEQDSKDSTYSLSSTLTLSKADYEKHKVYACEVTHQGLSSPVTKSFNRGEC
notes: 620I-X0177-G01 with IgG C-terminal Lys changed to Gly; also called 620I-R0052-C03; 620I-X180-C11
B18: 620I-X0142-B02 (bispecific antibody)
heavy: not shown
light: DIQMTQSPSTLSASVGDRVTITCRASQSISSWLAWYQQKPGKAPKLLIYKASTLESGVPSRFSGSGSGTEFTLTISSLQPDDFATYYCQQYNTYWTFGQGTKVEIKRTVAAPSVFIFPPSDEQLKSGTASVVCLLNNFYPREAKVQWKVDNALQSGNSQESVTEQDSKDSTYSLSSTLTLSKADYEKHKVYACEVTHQGLSSPVTKSFNRGEC
notes: also called 620I-X142-B02
B19: 620I-X0142-B07 (bispecific antibody)
heavy: not shown
light: DIQMTQSPSTLSASVGDRVTITCRASQSISSWLAWYQQKPGKAPKLLIYKASTLESGVPSRFSGSGSGTEFTLTISSLQPDDFATYYCQQYNTYWTFGQGTKVEIKRTVAAPSVFIFPPSDEQLKSGTASVVCLLNNFYPREAKVQWKVDNALQSGNSQESVTEQDSKDSTYSLSSTLTLSKADYEKHKVYACEVTHQGLSSPVTKSFNRGEC
notes: also called 620I-X142-B07

Assays:
Factor XIIa (FXIIa) [1] = molecular target: T1, Factor XIIa (FXIIa) (UniProt P00748 20-372; P00748 373-615, limits assumed); assay: FXIIa enzyme inhibition, Ki,app
T1 construct: the description speaks of human FXIIa; also called active Factor XII
T1 sequence (looked up) 1: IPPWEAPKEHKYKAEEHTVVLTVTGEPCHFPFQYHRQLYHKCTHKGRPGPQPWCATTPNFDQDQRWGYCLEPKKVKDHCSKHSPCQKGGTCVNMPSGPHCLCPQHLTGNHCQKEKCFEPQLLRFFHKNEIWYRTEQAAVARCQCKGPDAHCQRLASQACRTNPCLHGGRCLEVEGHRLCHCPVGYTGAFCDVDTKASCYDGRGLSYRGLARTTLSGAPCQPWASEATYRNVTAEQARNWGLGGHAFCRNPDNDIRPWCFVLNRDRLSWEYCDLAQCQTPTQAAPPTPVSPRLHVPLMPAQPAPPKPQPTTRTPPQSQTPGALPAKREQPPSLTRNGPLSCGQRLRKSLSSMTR
T1 sequence (looked up) 2: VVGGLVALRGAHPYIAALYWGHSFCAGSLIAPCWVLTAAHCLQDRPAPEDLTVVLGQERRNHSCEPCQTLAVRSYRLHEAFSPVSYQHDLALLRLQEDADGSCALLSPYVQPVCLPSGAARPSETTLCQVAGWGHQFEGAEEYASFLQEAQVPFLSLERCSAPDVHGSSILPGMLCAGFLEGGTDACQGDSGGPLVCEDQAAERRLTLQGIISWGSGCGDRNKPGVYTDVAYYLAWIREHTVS

plasma kallikrein (pKal) [2] = molecular target: T2, plasma kallikrein (pKal) (UniProt P03952 20-390; P03952 391-638, limits assumed); assay: pKal enzyme inhibition, Ki,app
T2 construct: the description speaks of human pKal; also called active pKal

plasma kallikrein (pKal) [3] = molecular target: T2, plasma kallikrein (pKal); assay: enzyme inhibition, corrected Ki,app
Factor XIIa (FXIIa) [4] = molecular target: T1, Factor XIIa (FXIIa); assay: enzyme inhibition, corrected Ki,app

T2 sequence (P03952 20-390 limits assumed, form in doubt, chain 1 of 2): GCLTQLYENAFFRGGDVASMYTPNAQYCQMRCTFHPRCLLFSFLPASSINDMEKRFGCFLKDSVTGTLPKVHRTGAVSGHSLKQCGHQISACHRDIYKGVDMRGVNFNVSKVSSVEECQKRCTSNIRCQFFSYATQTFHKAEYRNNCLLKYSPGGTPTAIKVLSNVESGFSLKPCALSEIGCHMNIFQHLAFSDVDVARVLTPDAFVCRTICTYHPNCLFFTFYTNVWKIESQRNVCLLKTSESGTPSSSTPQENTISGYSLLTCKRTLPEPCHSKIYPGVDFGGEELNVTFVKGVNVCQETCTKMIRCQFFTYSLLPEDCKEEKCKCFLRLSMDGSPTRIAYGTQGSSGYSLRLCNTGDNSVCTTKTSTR
T2 sequence (P03952 391-638 limits assumed, form in doubt, chain 2 of 2): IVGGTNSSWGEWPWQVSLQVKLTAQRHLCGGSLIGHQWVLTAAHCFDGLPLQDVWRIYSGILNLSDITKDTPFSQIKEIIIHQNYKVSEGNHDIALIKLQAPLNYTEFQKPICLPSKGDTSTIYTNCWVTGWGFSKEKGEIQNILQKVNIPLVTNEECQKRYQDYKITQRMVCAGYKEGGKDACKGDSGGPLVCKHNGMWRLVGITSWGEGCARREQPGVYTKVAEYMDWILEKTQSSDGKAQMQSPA

Binder | Ki (Factor XIIa (FXIIa) [1]) [nM] | Ki (plasma kallikrein (pKal) [2]) [nM] | Ki (plasma kallikrein (pKal) [3]) [nM] | Ki (Factor XIIa (FXIIa) [4]) [nM]
B1 | 0.108 | 0.243 |  | 
B2 |  |  | 0.622 | 7.72
B3 |  |  | 0.169 | 6.63
B4 | 0.099 | 0.203 |  | 
B5 |  |  | 0.276 | 0.252
B6 |  |  | 0.162 | 1.23
B7 |  |  | 0.162 | 0.186
B8 | 0.052 | 0.226 |  | 
B9 | 0.116 | 0.254 |  | 
B10 | 0.09 | 0.225 |  | 
B11 |  |  | 0.152 | 0.063
B12 | 0.071 | 0.208 |  | 
B13 |  |  | 0.196 | 0.172
B14 |  |  | 0.16 | 2.14
B15 | 0.092 | 0.243 |  | 
B16 |  |  | 0.17 | 0.414
B17 | 0.14 | 0.232 |  | 
B18 |  |  | 0.156 | 0.955
B19 |  |  | 0.224 | 0.775
